Assay results taken from the Immune Epitope Database (IEDB).

What was measured:
Conditions in all cases: source organism: Homo sapiens
HLA-A*02:01 = assay: IEDB peptide-MHC binding, purified MHC/competitive/radioactivity; filed as Kd, often an IC50 or EC50 that approximates it; ≥ and ≤ were set here for values at or beyond the usual limits of such assays
HLA-A*03:01 [1] = assay: IEDB peptide-MHC binding, purified MHC/competitive/radioactivity; ≥ and ≤ were set here for values at or beyond the usual limits of such assays
HLA-A*11:01 [2] = assay: as above
HLA-A*11:01 [3] = assay: IEDB peptide-MHC binding, purified MHC/competitive/radioactivity; filed as Kd, often an IC50 or EC50 that approximates it; ≥ and ≤ were set here for values at or beyond the usual limits of such assays
HLA-B*08:01 = assay: as above
HLA-B*07:02 = assay: as above
HLA-A*03:01 [4] = assay: as above
HLA-B*27:01 [5] = assay: as above
HLA-A*24:02 = assay: as above
HLA-B*27:01 [6] = assay: IEDB peptide-MHC binding, purified MHC/competitive/radioactivity; ≥ and ≤ were set here for values at or beyond the usual limits of such assays

## VASGAGEAAI
HLA-A*02:01
  Kd: ≥ 50 µM

## TINKEEAL
HLA-A*02:01
  Kd: ≥ 30 µM

## HSATGFKQSSK
HLA-A*03:01 [1]
  IC50: 400 nM
HLA-A*11:01 [2]
  IC50: 125 nM

## GKQSSKALQR
HLA-A*03:01 [1]
  IC50: 545 nM
HLA-A*11:01 [3]
  Kd: ≥ 5 µM

## ATGFKQSSKAL
HLA-A*02:01
  Kd: ≥ 30 µM
HLA-B*08:01
  Kd: 3600 nM

## EALQRPVASDF
HLA-B*07:02
  Kd: ≥ 30 µM

## HVASGAGEAAI
HLA-A*02:01
  Kd: ≥ 50 µM

## SATGFKQSSK
HLA-A*03:01 [4]
  Kd: 5.45 µM
HLA-A*11:01 [3]
  Kd: 3.53 µM

## TGFKQSSK
HLA-A*03:01 [4]
  Kd: ≥ 30 µM
HLA-A*11:01 [3]
  Kd: ≥ 30 µM

## QSSKALQR
HLA-A*03:01 [4]
  Kd: ≥ 30 µM
HLA-A*11:01 [3]
  Kd: ≥ 30 µM

## DLSSCITQGKA
HLA-A*02:01
  Kd: ≥ 50 µM

## CITQGKAI
HLA-A*02:01
  Kd: ≥ 50 µM

## TINKEEALQR
HLA-A*03:01 [4]
  Kd: ≥ 30 µM
HLA-A*11:01 [3]
  Kd: ≥ 30 µM

## NKEEALQR
HLA-B*27:01 [5]
  Kd: ≥ 30 µM

## PLTINKEEAL
HLA-A*02:01
  Kd: ≥ 30 µM

## GFKQSSKALQR
HLA-A*03:01 [1]
  IC50: 810 nM
HLA-A*11:01 [3]
  Kd: 2.15 µM

## KALQRPVSDF
HLA-A*24:02
  Kd: ≥ 30 µM

## KQSSKALQR
HLA-A*03:01 [1]
  IC50: 43 nM
HLA-A*11:01 [2]
  IC50: 273 nM

## ATGFKQSSK
HLA-A*03:01 [1]
  IC50: 300 nM
HLA-A*11:01 [2]
  IC50: 97 nM

## GFKQSSKAL
HLA-B*27:01 [6]
  IC50: 190 nM

## INKEEALQR
HLA-A*11:01 [3]
  Kd: ≥ 30 µM

## LTINKEEAL
HLA-A*02:01
  Kd: ≥ 30 µM
HLA-B*08:01
  Kd: 1900 nM
